To fix the notation:
B1: TPR t1 (parent)
chain: GACCAAUCUGCCCUCAGAGCUCGAGAACAUCUUCGGAUGCAGAGGAGGCAGGCUUCGGUGGCGCGAUAGCGCCAACGUCCUCAACCUCCAAUGCAUCCCACCACAUGAUGAUGCCUGAAGAGCCUUGGUUUUUUG

The variants in this data set derive from B1. Kind of data set: polymerase ribozyme fitness, log enrichment relative to wild type (log ratio); higher = more active; in vitro selection for triplet polymerase activity. An outline of the steps:
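Libraries of mutants in each subunit of a heterodimeric triplet polymerase ribozyme were generated by PCR and transcribed. In triplicate, each went through one in vitro selection round: annealing with biotinylated primer, partner subunit and triplets; frozen incubation at −7 °C; gel excision of extended constructs; streptavidin-bead capture; RT-PCR. Fitness, taken from Illumina sequencing of input and output libraries, is the logarithm of a genotype's enrichment over wild-type enrichment, averaged across replicates with inverse-variance weights. The logarithm is base 2, and genotypes needed ≥10 input reads and ≥1 read per output to be kept.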
Consider C72U C114A, for which the “polymerase ribozyme fitness (log ratio)” value is -1.67. The same measure for C72G U92A A118U U131C: -3.98; for C72U C80A: -5.24; for C72U C80U: -1.08. The same measure for C73G C82A A90U C123G: -0.559; for C73G A100C: -1.47.

With C72U C97A, the “polymerase ribozyme fitness (log ratio)” value was -5.06.

Consider C72U C97G, for which the “polymerase ribozyme fitness (log ratio)” value is -4.65. The same measure for C72U A83G C85U: -1.39; for C72U C124U: 0.818; for C72U C124A: 1.54. The same measure for C72G U78C C82U C94A: -0.768. Under C73G C123G stands 1.2; under C73A G127C, -1.98. Consider C73G C104G A121G, for which the “polymerase ribozyme fitness (log ratio)” value is -5.73. With C72U C76G, the “polymerase ribozyme fitness (log ratio)” value was -0.525. Take C72U C76A: the “polymerase ribozyme fitness (log ratio)” value is -0.968. Under C73A U109C C114G C115A G122U stands -7.04.

Take C73G C101A: the “polymerase ribozyme fitness (log ratio)” value was -1.3. For C72U U81C U116A, the “polymerase ribozyme fitness (log ratio)” value was -3.5. Under C73U U87A A91U U112A U116G stands -4.55; under C72U C94U G127U, -1.75. The same measure for C73U C79A A95G: -0.961; for C72G U129C U130A: -1.89. Under C73U G93C G113A C124G stands -1.29; under C73U U92A G93A, -4.03; under C72U G77U A100C A118U U129C, -2.77. For C73G C104U, the “polymerase ribozyme fitness (log ratio)” value was -0.454. On to C72U U96C, for which the “polymerase ribozyme fitness (log ratio)” value was -1.2. The same measure for C72U U109G: -4.62.

Take C73A C102U: the “polymerase ribozyme fitness (log ratio)” value was -0.943. The same measure for C72G C97U: -1.05. Under C72U G113U G120U U130C stands -3.5. Under C73U C79U U87A stands -0.627; under C72G C101A C114U, -3.4; under C72G U106A U129A, -1.25. For the variant C73G C114U, the “polymerase ribozyme fitness (log ratio)” value was -3.1. The same measure for C72U G110C G128U: -6.47; for C73U C85A G120U: -0.527. Under C73U C114A stands -1.19. The same measure for C73U C114U: -1.31; for C73G U125A: -1.21; for C72G C94A A119U: -1.99.

Take C73G C89A C99A G110C: the “polymerase ribozyme fitness (log ratio)” value is -6.57.

With C72U U96C G135U, the “polymerase ribozyme fitness (log ratio)” value was -1.42. The same measure for C73U C94A C104U G117U: -3.3; for C72U C102A G128A: -4.14; for C73U C80G A118U: -4.47. Under C73U G77C G93A C124U U126G stands -1.68. The same measure for C73G A75U A83U: -1.08; for C72G C101A U106A A119U C123U: -4.15; for C73U A84G: -0.874. For C72U A74U, the “polymerase ribozyme fitness (log ratio)” value is -1.23. The same measure for C72U A119G: 0.547; for C73U A84G G117C: -4.85; for C72U A100U: -0.925. Consider C72U A100C, for which the “polymerase ribozyme fitness (log ratio)” value was -1.3. The same measure for C73A U130C: -0.0885; for C72U A103U: -5.16. The same measure for C73A U133A: 0.106.

With C73U, the “polymerase ribozyme fitness (log ratio)” value was 0.0933. The same measure for C73G: -0.606.

Regarding C73A, the “polymerase ribozyme fitness (log ratio)” value came to 0.0792.

Regarding C72G C88U C123A, the “polymerase ribozyme fitness (log ratio)” value came to 0.243. As for C72U A100U A108G, the “polymerase ribozyme fitness (log ratio)” value is -1.87.

As to C73U U96G, the “polymerase ribozyme fitness (log ratio)” value is -0.308. Under C72U U78C U81A A83G stands -1.17; under C72U U81G, -3.35; under C73G C85U G117C U133A, -6.98.

For the variant C72U C94G C101A, the “polymerase ribozyme fitness (log ratio)” value is -2.57.

In the case of C72U U78C C86G G127C, the “polymerase ribozyme fitness (log ratio)” value was -2.25. For the variant C72U C88U U131C U133A, the “polymerase ribozyme fitness (log ratio)” value was -0.924. Under C72G G122A C123G stands 1.99; under C73U C88U U125G, -1.1; under C73A U87C A105U, -1.35. The same measure for C73U C86U U96C A119G U131C: 0.735; for C72U G77C: -1.07. The same measure for C73G C89G U131A: -2.56; for C72G G77C U78C A105G A119G: -2.47; for C73G A105C: -3.81. Take C73G A83G: the “polymerase ribozyme fitness (log ratio)” value is -1.44. Under C72G U78G stands -0.102; under C72U A83U A90G C114G, -1.45; under C72U U87G, -1.61. The same measure for C73A A74U C85U C94U C115U: -3.24; for C72U A111C: 0.581; for C72U U96G U106A G113A: -2.89.

With C72U C80U C82A U129G, the “polymerase ribozyme fitness (log ratio)” value is -2.75. The same measure for C72U C85A A105U: -3.17; for C72U C94U: -0.599; for C73U C123U: 0.98. As for C73U C123G, the “polymerase ribozyme fitness (log ratio)” value came out at 2.14. The same measure for C73U G93A: -0.23; for C72U G117C G120U U131G: -5.53. Under C72U G110A G113A stands -4.61; under C72U A103U U125G, -6.8.

In the case of C72U C85U G93U, the “polymerase ribozyme fitness (log ratio)” value is -2.45. The same measure for C72U U125G: -2.26; for C72U U125C: -1.92. The same measure for C73U G110A G117A C124U: -4.95. The same measure for C72U U112A G120C: 0.504; for C72G U125A G128A U133A: -3.47; for C73A U92C: -0.541.

Turning to C73A U92A, the “polymerase ribozyme fitness (log ratio)” value was -2.45. Under C72U C101G G120C stands -1.35. Under C72U C82U stands -0.823; under C72U C82A, -0.812; under C72G U78A G127U U129C, -2.25. C72G C104A: the “polymerase ribozyme fitness (log ratio)” value is -1.71. The same measure for C73U C104A: -1.22.

Regarding C73G C82A U92A, the “polymerase ribozyme fitness (log ratio)” value is -4.06.

Take C72U C88U C124A: the “polymerase ribozyme fitness (log ratio)” value turned out to be 0.938.

Consider C73U C89G A100U, for which the “polymerase ribozyme fitness (log ratio)” value was -2.03.

Consider C73G G120C U130A, for which the “polymerase ribozyme fitness (log ratio)” value was -0.0194. The same measure for C73G A111C: -0.327; for C73U C79G A119G C123A: -0.377. Turning to C73G U112A, the “polymerase ribozyme fitness (log ratio)” value is -0.766. Regarding C72U A121C U131C, the “polymerase ribozyme fitness (log ratio)” value turned out to be 0.346.

As for C73U A103U, the “polymerase ribozyme fitness (log ratio)” value is -4.35. Under C72U U130G stands -0.892; under C72U U130C, -0.237; under C72U U130A, -1.42. The same measure for C72U C94G U132A: -1.02. Turning to C73U G128U, the “polymerase ribozyme fitness (log ratio)” value was -1.62.

As for C73U C89A G120U, the “polymerase ribozyme fitness (log ratio)” value is -2.25. The same measure for C73U C124A: 2.11; for C72U U78C A83C: -0.433; for C72G C115U U116C: -2.72. Turning to C72U U96A A118G, the “polymerase ribozyme fitness (log ratio)” value was -1.7. The same measure for C72G U81C C104G C115U U133A: -6.64; for C72G U78G U116A: -3.97; for C73A U87G U129A: -1.12. The same measure for C72U A121C: 1.6. Under C72U A121U stands 1.5; under C72U A121G, 0.744; under C73G U109A C114U C123A U130G U132A, -4.38. Consider C72U G127C U132C, for which the “polymerase ribozyme fitness (log ratio)” value was -1.97. Regarding C73U G113C, the “polymerase ribozyme fitness (log ratio)” value is -1.54. The same measure for C73U G113U: -3.18; for C73A C94A C102A: -2.96. The same measure for C72G U78G C97U C124A: 1.18; for C72G G93U: -1.16. The same measure for C72U A105U U131C U132A: -2.36.

As for C73U A84C U92G U112A, the “polymerase ribozyme fitness (log ratio)” value was -2.54. Under C72U G113C stands -2.1. The same measure for C72U G113U: -2.87; for C72U C76A C98U: -1.75; for C73A G135U: -1.25.

Regarding C72U C123A, the “polymerase ribozyme fitness (log ratio)” value is 0.21. Regarding C73U C123G C124G, the “polymerase ribozyme fitness (log ratio)” value came to 2.14. The same measure for C73U C101U G122A: -0.395; for C72U G127C: -1.75; for C72U G127U: -1.84.

As to C73A A111U, the “polymerase ribozyme fitness (log ratio)” value was -2.93. Under C72U C98U U131C stands -1.05. Under C72G U92C C94A stands -3.47. Under C73G A121G stands 1.16; under C73G C82A, -1.99. In the case of C72G C114A, the “polymerase ribozyme fitness (log ratio)” value was -1.55.

With C73U A75U U87A U92A, the “polymerase ribozyme fitness (log ratio)” value was -4.13.

Take C72G C94G: the “polymerase ribozyme fitness (log ratio)” value is -1.73. Under C72U U81C G93C A119U G120C stands -0.213; under C73G C80U, -1.77. Under C72G G135A stands -0.341. The same measure for C73U G120U: 0.0471. C73U A121G: the “polymerase ribozyme fitness (log ratio)” value amounted to 2.17. Under C72G U125A U133C stands -0.433.

Values taken from the RNAGym collection of RNA variant scans (doi:10.1073/pnas.2313332121).
